Results as given in US20070224205A1.

Target: Toll-like Receptor 5 (UniProt O60602)
Assay: cell-based or functional assay

B1: STF2.HA1-1His(PR8), produced in Baculovirus (protein)
chain: AQVINTNSLSLLTQNNLNKSQSALGTAIERLSSGLRINSAKDDAAGQAIANRFTANIKGLTQASRNANDGISIAQTTEGALNEINNNLQRVRELAVQSANSTNSQSDLDSIQAEITQRLNEIDRVSGQTQFNGVKVLAQDNTLTIQVGANDGETIDIDLKQINSQTLGLDSLNVQKAYDVKDTAVTTKAYANNGTTLDVSGLDDAAIKAATGGTNGTASVTGGAVKFDADNNKYFVTIGGFTGADAAKNGDYEVNVATDGTVTLAAGATKTTMPAGATTKTEVQELKDTPAVVSADAKNALIAGGVDATDANGAELVKMSYTDKNGKTIEGGYALKAGDKYYAADYDEATGAIKAKTTSYTAADGTTKTAANQLGGVDGKTEVVTIDGKTYNASKAAGHDFKAQPELAEAAAKTTENPLQKIDAALAQVDALRSDLGAVQNRFNSAITNLGNTVNNLSEARSRIEDSDYATEVSNMSRAQILQQAGTSVLAQANQVPQNVLSLLASGSGSGSSHNGKLCRLKGIAPLQLGKCNIAGWLLGNPECDPLLPVRSWSYIVETPNSENGICYPGDFIDYEELREQLSSVSSFERFEIFPKESSWPNHNTNGVTAACSHEGKSSFYRNLLWLTEKEGSYPKLKNSYVNKKGKEVLVLWGIHHPPNSKEQQNLYQNENAYVSVVTSNYNRRFTPEIAERPKVRDQAGRMNYYWTLLKPGDTIIFEANGNLIAPMYAFALSRGFGSGIITSNASMHECNTKCQTPLGAINSSLPYQNIHPVTIGECPKYVRHHHHHH
  TLR activity (EC50, ng/ml); IL-8 secretion by HEK293 cells: 3 ng/mL
